This test addresses H5 hemagglutinin expressed on transfected cells (pJK2b-HA5) (influenza A virus, subtype H5; strain not stated). Description: cell-based or functional assay.

B1: 항체 4D9 (antibody 4D9), purified (antibody, V domains shown)
VH: QVTLRESGPGLVKPSETLSLTCTISGASINTDYWSWIRQPPGKGLEWIGYIYYRGRTNYNPSLRSRVTISVDTSKNQFSLQMTSMTAADTAVYYCARDVTGISRENAFDIWGQGTLVTVSS
VL: AIRMTQSPSSLSASVGDRVTITCRASQSISGYLNWYQQKPGKAPKLLIYAASSLQSGVPSRFSGSGSGTDFTLTISSLQPEDFATYYCQQSYSIPTTFGQGTRLEIK
With B1, the cell fusion inhibition was in the range of 50 to 60%.

For the origin of these results see patent KR20140116416A.
